Assay [1] addresses Trastuzumab with E5 Ecoil peptides fused at the C-termini of heavy and light chains (TZM-E5). Kind of assay: SEC-MALS; UPLC-SEC-MALS; TZM-Ex mixed with Kx-mRFP at 1:4 molar ratio (2 nmol + 8 nmol), 45 min at room temperature; BEH200 column, 0.2 M potassium phosphate, 0.2 M potassium chloride, 0.02% Tween-20, pH 7.0, 30 °C. A general note: SEC sorts molecules by how far they enter the pores of the column.

The target is the same in assay [2].

Ends that are not written are not given here.

Consider 2 molecules from paper PMC12371696.

In the case of “K5 Kcoil peptide fused to the N-terminus of monomeric red fluorescent protein (K5-mRFP) (designed binder)”, the stoichiometry N (K5-mRFP per TZM-E5) in assay [1] was determined as 4. With KVSALKEKVSALKEKVSALKEKVSALKEKVSALKEGGC(CF750 maleimide) [K5 Kcoil peptide (KVSALKE)5-GGC conjugated to CF750 maleimide near-infrared dye (K5-CF750)], the tumor fluorescence (total radiant efficiency, area under the curve 3-336 h) after intravenous injection of the preformed TZM-E5/K5-CF750 complex in the SKOV3 xenograft mouse model ([p/s] × h /[uW/cm^2]) in assay [2] was 4.4e+13.
